Measured values from patent publication US20260078341A1, “TREATMENT OF CANCER USING CHIMERIC ANTIGEN RECEPTOR” (Novartis AG, priority 2014, published 2026).

Target: Folate receptor alpha on cells (SKOV3, A1847, T47D; low levels on 293T and IOSE6) (human) (UniProt P15328)
Experiment: cell-based or functional assay

Sequence of Folate receptor alpha on cells (SKOV3, A1847, T47D; low levels on 293T and IOSE6) (human) (P15328 25-234, stated change not applied): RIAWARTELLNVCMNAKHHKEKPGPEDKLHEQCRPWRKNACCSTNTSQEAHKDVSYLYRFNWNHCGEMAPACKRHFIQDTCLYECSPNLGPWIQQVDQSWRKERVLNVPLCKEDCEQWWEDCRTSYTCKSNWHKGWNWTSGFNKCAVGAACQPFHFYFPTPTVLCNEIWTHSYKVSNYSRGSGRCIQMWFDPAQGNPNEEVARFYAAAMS

frequency of T cells with surface CAR before exposure to SKOV3 tumor cells: 65 % of T cells
frequency of T cells with surface CAR five hours after exposure to SKOV3 tumor cells: 1 % of T cells
Substance: MOv19-27z CAR (murine anti-human FRA MOv19 CAR)
